Values quoted from earlier work as cited in paper PMC6310256.

Target: complement C5 (human, recombinant) (UniProt P01031)
Assay: SPR (Biacore), as reported in ref 17
Conditions: cited from earlier work

Chain of UniProt P01031 (P01031 whole entry): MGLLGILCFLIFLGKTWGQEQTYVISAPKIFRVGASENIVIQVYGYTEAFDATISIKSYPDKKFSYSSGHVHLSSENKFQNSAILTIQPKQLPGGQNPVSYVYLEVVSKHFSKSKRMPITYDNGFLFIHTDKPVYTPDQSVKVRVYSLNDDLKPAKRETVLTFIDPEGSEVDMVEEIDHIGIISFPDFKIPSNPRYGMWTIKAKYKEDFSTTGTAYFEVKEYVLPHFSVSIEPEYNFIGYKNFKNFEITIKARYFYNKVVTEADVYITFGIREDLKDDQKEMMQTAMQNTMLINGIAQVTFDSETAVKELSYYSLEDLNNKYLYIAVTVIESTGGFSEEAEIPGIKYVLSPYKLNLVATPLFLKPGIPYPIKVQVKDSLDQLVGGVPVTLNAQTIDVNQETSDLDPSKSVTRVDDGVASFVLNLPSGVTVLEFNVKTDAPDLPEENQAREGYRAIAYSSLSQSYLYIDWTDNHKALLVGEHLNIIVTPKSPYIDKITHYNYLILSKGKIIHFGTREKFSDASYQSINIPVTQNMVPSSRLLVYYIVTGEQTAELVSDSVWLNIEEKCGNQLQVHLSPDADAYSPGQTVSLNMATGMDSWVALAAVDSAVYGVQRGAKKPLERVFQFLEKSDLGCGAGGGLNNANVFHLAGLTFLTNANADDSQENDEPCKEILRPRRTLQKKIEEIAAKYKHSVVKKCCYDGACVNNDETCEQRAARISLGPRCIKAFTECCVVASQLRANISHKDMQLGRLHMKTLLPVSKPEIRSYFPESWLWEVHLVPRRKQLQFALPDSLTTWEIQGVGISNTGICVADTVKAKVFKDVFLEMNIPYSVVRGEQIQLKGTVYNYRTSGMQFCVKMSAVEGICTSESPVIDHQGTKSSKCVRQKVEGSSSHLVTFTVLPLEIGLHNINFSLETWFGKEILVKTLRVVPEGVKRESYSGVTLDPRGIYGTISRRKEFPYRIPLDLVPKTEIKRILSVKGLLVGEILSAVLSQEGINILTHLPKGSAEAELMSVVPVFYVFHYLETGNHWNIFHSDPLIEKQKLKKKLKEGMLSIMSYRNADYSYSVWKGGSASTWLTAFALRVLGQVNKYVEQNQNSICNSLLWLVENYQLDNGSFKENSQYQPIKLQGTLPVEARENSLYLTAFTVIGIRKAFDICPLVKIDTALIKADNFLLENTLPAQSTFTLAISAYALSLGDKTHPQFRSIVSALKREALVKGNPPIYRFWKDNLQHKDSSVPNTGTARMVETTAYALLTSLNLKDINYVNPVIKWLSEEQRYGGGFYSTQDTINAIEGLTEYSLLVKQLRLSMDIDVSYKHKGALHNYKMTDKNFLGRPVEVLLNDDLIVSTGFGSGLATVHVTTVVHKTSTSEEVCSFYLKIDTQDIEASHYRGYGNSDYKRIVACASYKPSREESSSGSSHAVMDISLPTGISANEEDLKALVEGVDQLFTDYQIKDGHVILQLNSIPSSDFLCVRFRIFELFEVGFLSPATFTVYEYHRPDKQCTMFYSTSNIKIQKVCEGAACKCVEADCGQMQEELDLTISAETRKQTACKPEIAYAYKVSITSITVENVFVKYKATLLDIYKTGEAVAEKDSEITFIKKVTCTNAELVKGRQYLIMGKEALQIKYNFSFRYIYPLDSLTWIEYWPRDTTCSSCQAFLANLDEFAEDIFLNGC

Question: For “SKY59 (crovalimab, RO7112689) Includes am1-am6 and pm1-pm3 (pm3 is light chain F92K, Kabat), plus charge, deimmunization and Fc mutations that are not listed.”, which kd (pH 5.8) is on record?
Answer: 0.0145 s⁻¹

Question: And the KD (pH 7.4)?
Answer: 0.152 nM

Question: And the ka (pH 7.4)?
Answer: 1.44e+06 M⁻¹ s⁻¹
